Data set [1] deals with the molecule itself. Kind of data set: SEC; 1 mg/ml protein on a 24 ml Superose 12 HR 10/30 column in 20 mM Tris-HCl pH 8.0, 1 mM EDTA, 0.5 mM DTT, 150 mM KCl.
For data set [2], the target named is T1, E. coli SSB (single-stranded DNA binding protein), wild type (E. coli, UniProt P0AGE0 1-178).
T1 construct: also called wt SSB; source: purified as described [13]
Kind of data set: far-Western; purified SSB wt or mutant (0.5-5 µg) separated on 15% SDS-PAGE, blotted to PVDF, probed with 20-30 µg YbcN or Orf fused to MBP or GST; detected with anti-MBP or anti-GST antibodies. To be noted: both partners purified.

Data set [3] addresses T2, MBP-Orf (Bacteriophage lambda, UniProt P03765 1-146).
T2 sequence: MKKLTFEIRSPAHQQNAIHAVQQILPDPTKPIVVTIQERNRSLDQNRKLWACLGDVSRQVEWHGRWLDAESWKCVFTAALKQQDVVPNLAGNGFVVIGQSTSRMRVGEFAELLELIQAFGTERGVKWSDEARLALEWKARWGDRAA
The experiment in a line: EMSA; 5 mM EDTA; better than DS60; EMSA: 50 mM Tris-HCl pH 8.0, 5 mM EDTA (or 1 mM MgCl2), 1 mM DTT, 5% glycerol, 100 ug/ml BSA, on ice 15 min, 4% PAGE; anisotropy: 100 mM Tris-HCl pH 7.0, 10 nM. Particulars: protein: recombinant, tags: N-terminal MBP, chain copies: 2, label: 5'-32P on strand 1, blunt. (A gel shift assay detects complexes by their altered migration in electrophoresis.)

Several values for one entry are separate records, joined by “and”; a condition that tells them apart may be missing. Equal entries are not always repeated.

T1 sequence (P0AGE0 whole entry): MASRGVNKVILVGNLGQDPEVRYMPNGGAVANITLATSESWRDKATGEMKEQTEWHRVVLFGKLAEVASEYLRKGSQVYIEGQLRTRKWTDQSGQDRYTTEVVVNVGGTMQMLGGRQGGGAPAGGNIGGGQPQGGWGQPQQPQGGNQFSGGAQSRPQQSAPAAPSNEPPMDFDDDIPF

B1: MBP-Orf K48A (natural protein, bacteriophage λ)
chain: MKKLTFEIRSPAHQQNAIHAVQQILPDPTKPIVVTIQERNRSLDQNRALWACLGDVSRQVEWHGRWLDAESWKCVFTAALKQQDVVPNLAGNGFVVIGQSTSRMRVGEFAELLELIQAFGTERGVKWSDEARLALEWKARWGDRAA
notes: Orf (NinB) of bacteriophage λ with K48A; Mutant derivative in pMALc2; One paragraph calls residue 48 Arg48, others Lys48; source: E. coli BL21-AI carrying the pMALc2 construct, purified (amylose) as described [13]
What is called stoichiometry N is a count of units in the complex or per binding partner. For the molecule B1, the “stoichiometry N” value in data set [1] is 2. In addition, in data set [2], the binding result is on record as “binds”.

B2: MBP-Orf W137A (natural protein, bacteriophage λ)
chain: MKKLTFEIRSPAHQQNAIHAVQQILPDPTKPIVVTIQERNRSLDQNRKLWACLGDVSRQVEWHGRWLDAESWKCVFTAALKQQDVVPNLAGNGFVVIGQSTSRMRVGEFAELLELIQAFGTERGVKWSDEARLALEAKARWGDRAA
notes: Orf (NinB) of bacteriophage λ with W137A; Mutant derivative in pMALc2; source: E. coli BL21-AI carrying the pMALc2 construct, purified (amylose) as described [13]
On to B2, for which, in data set [1], the “stoichiometry N” value worked out at 2. The binding result in data set [2] is recorded as “binds”.

B3: MBP-Orf R103E (natural protein, bacteriophage λ)
chain: MKKLTFEIRSPAHQQNAIHAVQQILPDPTKPIVVTIQERNRSLDQNRKLWACLGDVSRQVEWHGRWLDAESWKCVFTAALKQQDVVPNLAGNGFVVIGQSTSEMRVGEFAELLELIQAFGTERGVKWSDEARLALEWKARWGDRAA
notes: Orf (NinB) of bacteriophage λ with R103E; Mutant derivative in pMALc2; source: E. coli BL21-AI carrying the pMALc2 construct, purified (amylose, heparin-agarose)
Regarding B3, in data set [1], the “stoichiometry N” value worked out at 2. Also, in data set [2], the binding result is “binds”.

B4: MBP-Orf Q45A (natural protein, bacteriophage λ)
chain: MKKLTFEIRSPAHQQNAIHAVQQILPDPTKPIVVTIQERNRSLDANRKLWACLGDVSRQVEWHGRWLDAESWKCVFTAALKQQDVVPNLAGNGFVVIGQSTSRMRVGEFAELLELIQAFGTERGVKWSDEARLALEWKARWGDRAA
notes: Orf (NinB) of bacteriophage λ with Q45A; Mutant derivative in pMALc2; source: E. coli BL21-AI carrying the pMALc2 construct, purified (amylose, heparin-agarose)
In the case of B4, the “stoichiometry N” value in data set [1] was found to be 2. The binding result in data set [2] is “binds”.

B5: MBP-Orf W50A (natural protein, bacteriophage λ)
chain: MKKLTFEIRSPAHQQNAIHAVQQILPDPTKPIVVTIQERNRSLDQNRKLAACLGDVSRQVEWHGRWLDAESWKCVFTAALKQQDVVPNLAGNGFVVIGQSTSRMRVGEFAELLELIQAFGTERGVKWSDEARLALEWKARWGDRAA
notes: Orf (NinB) of bacteriophage λ with W50A; Mutant derivative in pMALc2; source: E. coli BL21-AI carrying the pMALc2 construct, purified (amylose, heparin-agarose)
As for B5, in data set [1], the “stoichiometry N” value turned out to be 2. The binding result in data set [2] is “binds”.

B6: MBP-Orf V106E (natural protein, bacteriophage λ)
chain: MKKLTFEIRSPAHQQNAIHAVQQILPDPTKPIVVTIQERNRSLDQNRKLWACLGDVSRQVEWHGRWLDAESWKCVFTAALKQQDVVPNLAGNGFVVIGQSTSRMREGEFAELLELIQAFGTERGVKWSDEARLALEWKARWGDRAA
notes: Orf (NinB) of bacteriophage λ with V106E; Mutant derivative in pMALc2; Tends to form multimers or aggregates; source: E. coli BL21-AI carrying the pMALc2 construct, purified (amylose, heparin-agarose)
In the case of B6, the “stoichiometry N” value in data set [1] was 2 and 4. In addition, the binding result in data set [2] is given as “binds”.

B7: BB5 (structured_DNA)
DNA 1: TTTGGTCTAACTTTACCGCTACTAAATGCCGCGGATTGGTTTCGCTGAATCAGGTTATTA
DNA 2: TAATAACCTGATTCAGCGAAACCAATCGCAACCATTTAGTAGCGGTAAAGTTAGACCAAA
With B7, the binding result in data set [3] (central 5 nt bubble) is “binds”.

B8: BB13 (structured_DNA)
DNA 1: TTTGGTCTAACTTTACCGCTACTAAATGCCGCGGATTGGTTTCGCTGAATCAGGTTATTA
DNA 2: TAATAACCTGATTCAGCGAAACATTGTAGGTAAGCTTAGTAGCGGTAAAGTTAGACCAAA
Consider B8, for which the binding result in data set [3] (central 13 nt bubble) is listed as “binds”.

The record behind these values is paper PMC4118853, “Phage Orf Family Recombinases: Conservation of Activities and Involvement of the Central Channel in DNA Binding” (PLoS ONE, 2014).
